# Assay results: patent US20050147614A1 (CANCER RESEARCH TECHNOLOGY, published 2005)
# T1: carcinoembryonic antigen (CEA) (UniProt P06731 35-685, limits assumed, biotinylated (labelled form); unlabelled CEA (Calbiochem) used as competitor in the off-rate assays)
# T1 construct: also called biotinylated-CEA; bio-CEA
# T1 sequence (looked up): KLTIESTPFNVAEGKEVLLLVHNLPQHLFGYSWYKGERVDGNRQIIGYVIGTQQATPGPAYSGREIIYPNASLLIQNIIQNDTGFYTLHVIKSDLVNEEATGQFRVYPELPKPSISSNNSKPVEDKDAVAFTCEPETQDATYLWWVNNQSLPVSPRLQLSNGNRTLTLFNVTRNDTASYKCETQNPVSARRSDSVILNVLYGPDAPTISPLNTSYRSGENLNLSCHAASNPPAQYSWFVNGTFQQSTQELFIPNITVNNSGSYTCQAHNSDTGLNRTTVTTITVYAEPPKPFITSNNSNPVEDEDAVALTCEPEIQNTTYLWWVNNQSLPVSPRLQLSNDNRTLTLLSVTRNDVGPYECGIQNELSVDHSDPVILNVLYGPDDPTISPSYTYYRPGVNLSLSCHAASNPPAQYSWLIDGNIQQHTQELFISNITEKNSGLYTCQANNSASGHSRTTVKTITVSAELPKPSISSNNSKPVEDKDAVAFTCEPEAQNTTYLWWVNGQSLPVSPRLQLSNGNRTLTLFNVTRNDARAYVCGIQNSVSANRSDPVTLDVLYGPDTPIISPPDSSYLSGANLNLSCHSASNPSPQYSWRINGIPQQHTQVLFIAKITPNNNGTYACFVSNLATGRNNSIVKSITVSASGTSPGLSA
# B1: sm3E (scFv)
# scFv: PYDVPDYALQASGGGGSGGGGSGGGGSASQVKLEQSGAEVVKPGASVKLSCKASGFNIKDSYMHWLRQGPGQRLEWIGWIDPENGDTEYAPKFQGKATFTTDTSANTAYLGLSSLRPEDTAVYYCNEGTPTGPYYFDYWGQGTLVTVSSGGGGSGGGGSGGGGSENVLTQSPSSMSVSVGDRVTIACSASSSVPYMHWLQQKPGKSPKLLIYLTSNLASGVPSRFSGSGSGTDYSLTISSVQPEDAATYYCQQRSSYPLTFGGGTKLEIKAAAGSEQKLISEEDL
# notes: also called stabilized m3E
# How the values were obtained:
# [1] = target: T1, carcinoembryonic antigen (CEA); test: yeast surface display, equilibrium titration with biotinylated CEA, flow cytometry
# [2] = target: T1, carcinoembryonic antigen (CEA); test: yeast surface display, off-rate analysis with biotinylated CEA and excess unlabelled CEA, flow cytometry
binder,measurement,setting,value
B1,Kd,[1],30 pM
same,koff,[2],1.2e-06 s⁻¹
